T1: Pumilio RNA-binding domain (UniProt P25822 1091-1426)
T1 sequence: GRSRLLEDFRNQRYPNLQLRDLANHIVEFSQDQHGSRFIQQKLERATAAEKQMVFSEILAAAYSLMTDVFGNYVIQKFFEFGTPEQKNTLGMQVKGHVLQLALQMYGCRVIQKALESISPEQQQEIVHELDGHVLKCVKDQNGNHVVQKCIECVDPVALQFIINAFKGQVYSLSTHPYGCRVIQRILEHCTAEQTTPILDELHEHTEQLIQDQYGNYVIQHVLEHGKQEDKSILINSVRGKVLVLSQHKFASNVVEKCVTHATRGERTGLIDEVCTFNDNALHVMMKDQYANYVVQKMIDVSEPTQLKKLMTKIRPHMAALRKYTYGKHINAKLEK


Biological target: Bruno (UniProt O02374 1-604)
Experiment: EMSA; 50 mM Tris pH 7.5, 150 mM NaCl, 2 mM DTT, 0.1 mg/ul BSA (so in the source), 0.001% Igepal CA-630, dIdC and yeast tRNA; 20 min at RT; 6% native PAGE at 4 C
Conditions: protein: recombinant; tags: His (pETM-82; purified on His GraviTrap); label: 5'-32P

Bruno, sequence (O02374 entry or part of it): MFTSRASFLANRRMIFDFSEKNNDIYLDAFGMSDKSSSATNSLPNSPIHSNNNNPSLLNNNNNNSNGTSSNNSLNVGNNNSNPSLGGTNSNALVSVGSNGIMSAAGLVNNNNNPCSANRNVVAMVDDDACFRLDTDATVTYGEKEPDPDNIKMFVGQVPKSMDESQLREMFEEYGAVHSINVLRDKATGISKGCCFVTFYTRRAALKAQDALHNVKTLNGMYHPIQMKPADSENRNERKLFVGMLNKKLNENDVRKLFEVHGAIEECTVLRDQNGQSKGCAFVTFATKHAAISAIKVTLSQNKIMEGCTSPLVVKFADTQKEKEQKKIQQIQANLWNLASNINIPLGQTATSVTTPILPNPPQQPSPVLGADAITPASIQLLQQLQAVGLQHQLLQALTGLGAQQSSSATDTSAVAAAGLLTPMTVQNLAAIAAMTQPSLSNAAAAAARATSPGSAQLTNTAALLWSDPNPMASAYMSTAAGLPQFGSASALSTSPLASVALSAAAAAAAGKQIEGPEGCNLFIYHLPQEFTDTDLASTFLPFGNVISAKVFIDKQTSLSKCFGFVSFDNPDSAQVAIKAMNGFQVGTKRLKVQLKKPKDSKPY

Q: Does UUUCUCAAUU (ssRNA) [pgc 3'UTR PRE mutant UCUC] bind?
A: no binding

Q: Does UUUUUUAAUU (ssRNA) [pgc 3'UTR PRE mutant UUUU] bind?
A: no binding

Q: Does CUUGAAUGUAUGUUAAUUGUAUGUAUUGAU (ssRNA) [osk 3'UTR BRE] bind?
A: binds

Q: Does UUUGUAAAUU (ssRNA) [pgc 3'UTR PRE/BRE] bind?
A: binds

Biological target: T1, Pumilio RNA-binding domain
Experiment: as above
Conditions: protein: recombinant; tags: HaloTag (pFN18K) removed by AcTEV cleavage; label: 5'-32P

Q: Does UUUCUCAAUU (ssRNA) [pgc 3'UTR PRE mutant UCUC] bind?
A: no binding

Q: Does UUUUUUAAUU (ssRNA) [pgc 3'UTR PRE mutant UUUU] bind?
A: no binding

Q: Does UUUGUAAAUU (ssRNA) [pgc 3'UTR PRE/BRE] bind?
A: binds

Q: Does UAGACUAUUUGUAAUUUAUAUC (ssRNA) [CycB 3'UTR NRE] bind?
A: binds

Source: paper PMC6328254, “Sequential Regulation of Maternal mRNAs through a Conserved cis-Acting Element in Their 3′ UTRs”
